Source: patent publication US20230399650
Where a chain is given by its changes, count along the chain named.

Key:
[1] = system: VapBC hetero-octamer, VapB Q12A (VapBA12C) (Shigella sonnei); assay: SPR; settings: 25 C, 50 mM Tris pH 8.0, 150 mM NaCl; approximate
[2] = system: VapBC hetero-octamer, VapB Q12L (VapBL12C, CS14 allele) (Shigella sonnei); assay: SPR; settings: 25 C, 50 mM Tris pH 8.0, 150 mM NaCl; traces not at equilibrium; methods state chip duplex SH167 annealed with SH181 (SH181 printed is operator site 2 sequence)
[3] = system: T1, VapB^A12 (Shigella sonnei VapB, Q12A)
T1 sequence: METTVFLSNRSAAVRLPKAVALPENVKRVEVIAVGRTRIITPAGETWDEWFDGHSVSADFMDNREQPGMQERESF

[4] = system: T2, VapB^L12 (VapB of Shigella sonnei CS14, Q12L)
T2 sequence: T1 sequence with A12L

[5] = system: T3, VapB^Q12 (Shigella sonnei 53G wild-type VapB antitoxin)
T3 sequence: T1 sequence with A12Q

ATCATAAACGTATATCCCTTTGACATATCCCG (double strand) [vapBC operator site 1, biotinylated for SPR (SH180 printed)]
binding signal (fold lower affinity than VapBQ12C) [1]: 10
binding signal (fold lower affinity than VapBQ12C) [2]: 4

Shigella Lon protease, hexameric (Lon6)
degradation of VapB by Lon in the presence of long-chain polyphosphate [3]: significantly enhanced Lon degradation of both VapB^L12 and VapB^A12
degradation of VapB by Lon in the presence of operator DNA or control DNA [3]: neither operator DNA nor control DNA affect Lon degradation of VapB^L12 or VapB^A12
degradation of VapB by Lon, in vitro proteolysis with and without ATP, SDS-PAGE [3]: VapB degradation by Lon protease is ATP dependent
degradation of VapB by Lon, in vitro proteolysis, SDS-PAGE [3]: after two hours we observed that VapB^A12 was degraded significantly more than VapB^L12
degradation of VapB by Lon in the presence of long-chain polyphosphate [4]: significantly enhanced Lon degradation of both VapB^L12 and VapB^A12
degradation of VapB by Lon in the presence of operator DNA or control DNA [4]: neither operator DNA nor control DNA affect Lon degradation of VapB^L12 or VapB^A12
degradation of VapB by Lon, in vitro proteolysis over four hours, SDS-PAGE [4]: no significant difference in the degradation of VapB^Q12 and VapB^L12 by Lon protease over the course of assays
degradation of VapB by Lon, in vitro proteolysis with and without ATP, SDS-PAGE [4]: VapB degradation by Lon protease is ATP dependent
degradation after 4 hours, in the presence of control DNA [5]: 31% vs 55% degradation after 4 hours
degradation after 4 hours, without DNA [5]: 31% vs 55% degradation after 4 hours
degradation of VapB by Lon in the presence of control DNA [5]: significant degradation of VapB^Q12 was observed within two hours
degradation of VapB by Lon in the presence of long-chain polyphosphate [5]: Polyphosphate significantly reduced Lon degradation of VapB^Q12
degradation of VapB by Lon in the presence of operator DNA [5]: virtually no degradation of VapB^Q12 over the course of assays
degradation of VapB by Lon, in vitro proteolysis over four hours, SDS-PAGE [5]: no significant difference in the degradation of VapB^Q12 and VapB^L12 by Lon protease over the course of assays
degradation of VapB by Lon, in vitro proteolysis with and without ATP, SDS-PAGE [5]: VapB degradation by Lon protease is ATP dependent
